Assay [1] addresses T1, hCLDN18.2 peptide (amino acid residues 28-37 of hCLDN18.2) (human).
T1 construct: Synthesised by Sangon Biotech; coated on ELISA plates; also called antigen peptide; hCLDN18.2 Peptide (aa28-37)
T1 peptide: DQWSTQDLYN
In words: ELISA on coated peptide. The protocol: (§1) 1 μg/ml of peptide ([…]) was coated onto the high-binding clear polystyrene 96 well plates and blocked with blocking buffer. Serial diluted antibodies (from 150 to 0.0732 ng/ml) in blocking buffer were then added and incubated for 1.5 hrs at room temperature. The plate was washed 6 times using washing buffer and then 100 μl/well Goat pAb to Ms IgG(HRP) was added for incubation at room temperature for 1.5 hr. After washing with washing buffer, TMB was added to react with HRP on the plate. Then OD450 nm of the plate was read by SpectraMax i3x (Molecular Devices). 14G11G2D2 and 69H2F7E6 can specifically bind with the peptide with high affinity while GC182 can not recognize the epitope in the linear peptide. (FIG. 3)

In assay [2] the target is T2, Human recombinant CLDN18.2 (N-6His) variant (human).
T2 construct: Bought fusion polypeptide; also called recombinant hCLDN18.2 variant protein; Novoprotein NC101
T2 chain: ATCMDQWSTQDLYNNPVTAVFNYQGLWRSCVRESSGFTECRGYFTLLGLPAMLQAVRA
In words: ELISA on coated recombinant CLDN18.2 (N-6His) variant (1 µg/ml). The protocol:
1 μg/ml of human recombinant CLDN18.2 (N-6His) variant or human recombinant CLDN18.1 (N-8His) variant (100 μL/well) was coated onto the high-binding clear polystyrene 96 well plates and blocked with blocking buffer. Serial diluted antibodies (from 100 to 0.0244 ng/ml) in blocking buffer were added and incubated for 1.5 hrs at room temperature. The plate was washed 6 times using washing buffer (PBS+0.1% Tween) washer and then 100 μl/well Goat pAb to Ms IgG (HRP) was added for incubation at RT for 1.5 hr. After washing with washing buffer, TMB was added to react with RP on the plate. Then OD450 nm of the plate was read by SpectraMax i3x (Molecular Devices).
For orientation: ELISA stands for enzyme-linked immunosorbent assay.

Assay [3] concerns the target T3, human CLDN18.1 (human, UniProt P56856 1-261).
T3 construct: also called hCLDN18.1
T3 sequence: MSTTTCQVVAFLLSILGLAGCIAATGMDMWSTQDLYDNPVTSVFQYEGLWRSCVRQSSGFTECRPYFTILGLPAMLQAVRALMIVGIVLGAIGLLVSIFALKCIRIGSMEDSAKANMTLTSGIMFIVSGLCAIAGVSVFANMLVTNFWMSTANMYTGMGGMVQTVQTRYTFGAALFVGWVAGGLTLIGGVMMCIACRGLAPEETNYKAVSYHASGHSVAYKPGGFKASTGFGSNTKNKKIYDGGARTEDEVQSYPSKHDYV
In words: ICC on FFPE HEK293-CLDN18.1 cell block sections; clone 69H2F7E6; '-' = negative staining.

Assay [4] addresses T1, hCLDN18.2 peptide (amino acid residues …). The experiment in a line: ELISA: hCLDN18.2 peptide (aa 28-37) coated on the plate at 1 ug/ml, antibody dilution series up to 150 ng/mL, detection with goat anti-mouse IgG-HRP, OD450-OD620. As to the method: as §1
In assay [5] the target is T2, Human recombinant CLDN18.2 (N-6His) …. The experiment in a line: BLI (ForteBio Octet RED 96): His-tagged recombinant hCLDN18.2 variant loaded on Ni-NTA biosensors, antibody in solution at 50 nM and 25 nM. The protocol: (§2) 100 nM human recombinant CLDN18.2 (N-6His) (Novoprotein, NC101) protein in 1×Kinetics Buffer ((PBS+0.1% BSA+0.02% Tween20) were loaded onto pre-wet Ni-NTA biosensors (PALL, 18-5101) for 200s. After equilibrated in 1×Kinetics Buffer as baseline (60s), the sensor was immersed into serial diluted antibodies (50 nM, 25 nM) with 1×Kinetics Buffer respectively and incubated for 200s to determine the association (kon), followed by dissociation in 1×Kinetics Buffer for 200s (koff). The biosensors are regenerated for 5s in Regeneration Buffer, followed by neutralization for 5s in Neutralization Buffer for 3 times. All procedure were performed at 30° C. with Octet RED 96 (PALL). The binding affinity KD was calculated and analyzed using the ratio of koff to kon. (FIG. 6).
A general note: In BLI a coated tip is dipped into the sample, and binding shifts an interference pattern.

For assay [6] the target is unchanged. In words: BLI (ForteBio Octet RED 96), His-tagged antigen on Ni-NTA sensors, antibody 50 and 25 nM in solution, 30 C. The protocol: as §2
For assay [7], the target named is T3, human CLDN18.1. The experiment in a line: ICC on FFPE HEK293-CLDN18.1 cell block sections; clone 14G11F5E1; '-' = negative staining.

Usually EC50 stands for the concentration at which the effect is half-maximal. A word on the koff: it is the first-order rate constant of dissociation. For orientation: kon means a measure of how fast the partners come together. Usually Kd stands for the constant that tells how readily two partners part at equilibrium.

B1: GC182 (antibody, V domains shown)
VH: QIQLVQSGPELKKFGETVKISCKASGYTFTDYSIHWVKQAPGKGLKWMGWINTETGVPTYADDFKGRFAFSLETSASTAYLQINNLKNEDTATYFCARRTGFDYWGQGTTLTVSS
VL: DIVMTQAAFSIPVTLGTSASISCRSSKNLLHSDGITYLYWYLQRPGQSPQLLIYRVSNLASGVPNRFSGSESGTDFTLRISRVEAEDVGVYYCVQVLELPFTFGGGTKLEIK
notes: also called anti-CLDN18.2 antibody GC182
As for B1, the binding result in assay [1] was “no binding (tested: 150 ng/ml (highest concentration tested))”.

B2: 69H2 (antibody, mouse IgG1, kappa, V domains shown)
VH: QVQLQQSGPELMKPGASLQISCKASGYFFTTYYIHWVKQRPGQGLEWIGWIYPRGGNTVYNEKFKGKATLTSDTSSSTAYMQLSSLTSEDSAVYYCAINYRSTFGYWGQGTLVTVSA
VL: DVLMTQTPLSLPVSLGDQASISCRSSQNIVHSNGNTYLEWYLQKPGQSPKLLIYKISNRFSGVPDRFSGSGSGTDFTLKISRVEAEDLGVYYCFQGSHVPFTFGSGTKLEIKR
notes: Mouse antibody; the recombinant form is VH/VL fused to mouse IgG1 / kappa constant regions; also called 69H2F7E6; 69H2D3B1
Consider B2, for which the EC50 in assay [2] stood at 0.0139 µg/mL; in assay [4], 0.0143 µg/mL. In assay [3], the binding result is “no binding (tested: 1 nM)”. Besides, the koff in assay [5] was 0.000695 s⁻¹. For the same molecule, in assay [5], the on-rate constant (kon) worked out at 471000 M⁻¹ s⁻¹. In assay [6], the Kd came out at 1.48 nM.

B3: 14G11 (antibody, mouse IgG1, kappa, V domains shown)
VH: QVQLQQSGPELVRPGASVKISCKASGYRFTRNYFHWVKQRPGQGLEWIGWIYPGGFDIEYSEKFKGKATLTTDTSSSTAYMLLTSLTSEDSAVYYCAINYGSTFGYWGQGTLVTVSV
VL: DVLMTQTPLSLPVSLGDQASISCRSSQNIVHSNGNTYLEWYLQRPGQSPKLLIYKVSNRFSGVPDRFSGSGSGTDFTLKINRVEAEDLGVYYCFQGSHVPFTFGSGTKLEIKR
notes: Mouse antibody; the recombinant form is VH/VL fused to mouse IgG1 / kappa constant regions; also called 14G11G2D2; 14G11A4E1
As for B3, the EC50 in assay [2] is 0.0127 µg/mL. Also, the binding result in assay [7] is reported as “no binding (tested: 0.5 nM)”. This molecule also showed a concentration for a half-maximal effect (EC50) in assay [4] of 0.027 µg/mL. In assay [5], the koff is 0.000111 s⁻¹ and the kon stood at 522000 M⁻¹ s⁻¹. Besides, the Kd in assay [6] amounted to 0.213 nM.

The values above are taken from patent publication US20230331836A1 (SUZHOU TRANSCENTA THERAPEUTICS, published 2023).
